The nature of the data set: 14C assay: 14CO2 capture from [14C]-carboxyl-labeled dicamba with IPTG-induced recombinant E. coli cells. Conditions: for Dicamba Decarboxylase Activity: IPTG-induced recombinant E. coli cells, 14CO2 from [14C]-carboxyl-labeled dicamba; for decarboxylation activity of dicamba: among the 108 sequences tested, recombinant E. coli cell assay; for Enzymatic Detection level: dicamba decarboxylation activity.

Results on five molecules are retold here after US20140289906A1, “Compositions Having Dicamba Decarboxylase Activity and Methods of Use” (priority 2013, published 2014).

B1: 57 (protein)
chain: MAKLICVEEHVLDPAVGAATQSLVRAEAPYLPDWGSRVLDGRHVADRSRPHVIAPSESARKALEMGEPRLADMDAASIDMQVLSYGGFPQLLPAAQAIDLNRAANDKLALAAQAHPARFAGFATLPWQAPEAAARELERAVKQLGLKGALINGRPGDTFLDDARYAPILAAFDELKVPLYVHPGLPLPAVQAPYYGGFERELSARLAMFAWGWHNEAGIQVVRMLLAGVFDRHPRLQLISGHWGEMVPFFLQRLEDSIPQEASGLQRPIVQTYREHVYISPSGMFTLPHFQFIHALMGAQRILYSIDYPYQSLDGARAFIERLPISDTDKALIAHRNAERLLHL
modifications: Collimonas fungivorans
Turning to B1, the “Dicamba Decarboxylase Activity” value is listed as “High”, the “decarboxylation activity of dicamba” value is given as “showed decarboxylation activity of dicamba” and the “Enzymatic Detection level” value is “High”.

B2: 56 (protein)
chain: MAKIICLEEHYLDSELGRACMPVALEQAPFLGDWGKTVADGHNPDRSRPQIEKNALINAKGADLGSRRLRDMDEAGITLQILSVGGFPQLAPEDEAVTLNTAANDRLAEAVRNHPDRFAAFATLPWAQPKDAENELVRAVEKLGFKGALLNGRPSSCFLDHPDYDSLLSRFNKLNVPLYLHPGLPLKSVQQAYFTGFSAEVNARLSMFGWGWHHEAGIHLLRLMLSGAFDKYPNMQVISGHWGEMLPFWLQRLDDSLPLAATGLSRTLTRTFQEHVYVTPSGMLTLPHFKFIYELMGAERILFSVDYPYQTLDGVKTFIDSLPVNKAEKEAIAFRNAERLLGITA
modifications: Enterobacter aerogenes
Regarding B2, the “Dicamba Decarboxylase Activity” value was “High”, the “decarboxylation activity of dicamba” value is listed as “showed decarboxylation activity of dicamba” and the “Enzymatic Detection level” value is “High”.

B3: 2 (protein, listed as Serratia sp.)
chain: MAKIICLEEHTLDKALVMASMPAALEQAPFLSDWGKTVTDGNLPDRSRPQIEKNDLINIKGADIGRGRLDDMDVAGITMQVLSVGGFPHLISAAEGVDLNRAANDRLADAVNAHPDRFAAFATLPWAQPDSAEKELERAVKELGFKGALLNGRPSTHFLDHPDYDGLLARFNALGVPLYLHPGLPVRSVQQAYYGGFSDEVTARLSMFGWGWHHEAGIHLLRLILSGAFDKYPNLQVISGHWGEMLPFWLQRLDDSLPQAATGLRRTIAQTFKEQVYVTPSGMLTLPHFQFIYALLGAERIIFSVDYPYQTLDGVKAFIQSLPVPEEAKEAIAFRNAERLLGLTS
As for B3, the “Dicamba Decarboxylase Activity” value is reported as “High”, the “decarboxylation activity of dicamba” value is given as “showed decarboxylation activity of dicamba” and the “Enzymatic Detection level” value is on record as “High”.

B4: 55 (protein, listed as Serratia sp.)
chain: MAKIICLEEHTLDKALVMASMPAALEQAPFLSDWGKTVTDGNLPDRSRPQIEKNDLINIKGADIGRGRLDDMDVAGITMQVLSVGGFPHLISAAEGVDLNRAANDRLADAVNAHPDRFAAFATLPWAQPDSAEKELERAVKELGFKGALLNGRPSTHFLDHPDYDGLLARFNALGVPLYLHPGLPVRSVQQAYYGGFSDEVTARLSMFGWGWHHEAGIHLLRLILSGAFDKYPNLQVISGHWGEMLPFWLQRLDDSLPQAATGLRRTIAQTFKEQVYVTPSGMLTLPHFQFIYALLGAERIIFSVDYPYQTLDGVKAFIQSLPVPEEAKEAIAFRNAERLLGLTS
For B4, the “Dicamba Decarboxylase Activity” value is recorded as “High”, the “decarboxylation activity of dicamba” value is reported as “showed decarboxylation activity of dicamba” and the “Enzymatic Detection level” value was “High”.

B5: 58 (protein)
chain: MARVIALEEHYATTEFLRGPGTWLASRPGIVEPAGDLGDGRIAAMDQAGVDLAVLSLAAPGVEQLDPDDAVRLARDCNDQLAAAVRRYPDRLAGFATVPTSAPDRAADELERAVRGLGFPGAVINGHSRGRYLDDPFFEPVLARAAELQAPIYLHPTIPPAGVIESSYAGFAEPVTFALATVGWGWHINTATHALRMILGGVFDRHPSLQMIIGHMGEATSFMLPRFDATLKPELTGLNHPVSSYLRENFHYTFANFNDHATYANLVAQVGIERVAFSADYPFGSMVDARAFLDGLPLSDDERAAISHRNAEKLLGL
modifications: Mycobacterium colombiense
B5: the “Dicamba Decarboxylase Activity” value is listed as “High”, the “decarboxylation activity of dicamba” value is “showed decarboxylation activity of dicamba” and the “Enzymatic Detection level” value is on record as “High”.
